Measured values: article PMC3518449 (The Biochemical journal, 2012)
Values joined by “and” are separate entries in the source; they are usually repeats but may differ in a detail not shown here. Equal values may be shown once.

What was measured:
CYP1A2 = biological target: T1, CYP1A2 (Oryctolagus cuniculus, UniProt P00187); assay: enzyme activity titration
T1 chain: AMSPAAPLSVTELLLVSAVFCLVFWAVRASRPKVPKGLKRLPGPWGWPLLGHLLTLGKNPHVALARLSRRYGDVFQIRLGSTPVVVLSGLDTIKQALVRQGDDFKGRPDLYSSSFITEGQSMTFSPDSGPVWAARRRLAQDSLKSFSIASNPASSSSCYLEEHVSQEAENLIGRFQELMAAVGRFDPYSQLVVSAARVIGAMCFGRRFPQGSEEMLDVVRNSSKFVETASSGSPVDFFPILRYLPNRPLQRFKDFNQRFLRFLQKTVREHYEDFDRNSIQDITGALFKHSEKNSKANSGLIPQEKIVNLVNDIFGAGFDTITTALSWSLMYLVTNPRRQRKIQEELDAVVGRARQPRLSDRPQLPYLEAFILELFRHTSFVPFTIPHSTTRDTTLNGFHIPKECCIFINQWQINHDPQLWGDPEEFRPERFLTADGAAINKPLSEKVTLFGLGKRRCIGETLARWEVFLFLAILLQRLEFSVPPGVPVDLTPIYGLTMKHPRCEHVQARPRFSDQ

cross-linking = biological target: the molecule itself; assay: cross-linking

B1: POR (protein)
chain: MADSHGDTGATMPEAAAQEASVFSMTDVVLFSLIVGLITYWFLFRKKKEEVPEFTKIQAPTSSSVKESSFVEKMKKTGRNIVVFYGSQTGTAEEFANRLSKDAHRYGMRGMAADPEEYDLADLSSLPEINNALAVFCMATYGEGDPTDNAQDFYDWLQETDVDLSGVKYAVFGLGNKTYEHFNAMGKYVDQRLEQLGAQRIFELGMGDDDANLEEDFITWREQFWPAVCEHFGVEATGEESSIRQYELVLHTDIDVAKVYQGEMGRLKSYENQKPPFDAKNPFLATVTTNRKLNQGTERHLMHLELDISDSKIRYESGDHVAVYPANDSALVNQLGEILGADLDVVMSLNNLDEESNKKHPFPCPTSYRTALTYYLDITNPPRTNVLYELAQYAADPAEQEQLRKMASSSGEGKELYLSWVVEARRHILAILQDYPSLRPPIDHLCELLPRLQARYYSIASSSKVHPNSVHICAVAVEYETKAGRLNKGVATSWLRAKEPAGENGGRALVPMFVRKSQFRLPFKATTPVIMVGPGTGVAPFIGFIQERAWLRQQGKEVGETLLYYGCRRAAEDYLYREELAGFQKDGTLSQLNVAFSREQAQKVYVQHLLRRDKEHLWRLIHEGGAHIYVCGDARNMARDVQNTFYDIVAELGAMEHAQAVDYVKKLMTKGRYSLDVWS
Kd (CYP1A2): 12 nM

B2: Cytochrome P450 1A2 (CYP1A2), isolated from rabbit liver microsomes (enzyme, UniProt P00187 1-516, looked up)
chain: MAMSPAAPLSVTELLLVSAVFCLVFWAVRASRPKVPKGLKRLPGPWGWPLLGHLLTLGKNPHVALARLSRRYGDVFQIRLGSTPVVVLSGLDTIKQALVRQGDDFKGRPDLYSSSFITEGQSMTFSPDSGPVWAARRRLAQDSLKSFSIASNPASSSSCYLEEHVSQEAENLIGRFQELMAAVGRFDPYSQLVVSAARVIGAMCFGRRFPQGSEEMLDVVRNSSKFVETASSGSPVDFFPILRYLPNRPLQRFKDFNQRFLRFLQKTVREHYEDFDRNSIQDITGALFKHSEKNSKANSGLIPQEKIVNLVNDIFGAGFDTITTALSWSLMYLVTNPRRQRKIQEELDAVVGRARQPRLSDRPQLPYLEAFILELFRHTSFVPFTIPHSTTRDTTLNGFHIPKECCIFINQWQINHDPQLWGDPEEFRPERFLTADGAAINKPLSEKVTLFGLGKRRCIGETLARWEVFLFLAILLQRLEFSVPPGVPVDLTPIYGLTMKHPRCEHVQARPRFSDQ
stoichiometry N (cross-linking): 2 and 4 and 5 and 6
